The values below come from patent US20210403583A1 (ELIXIRON IMMUNOTHERAPEUTICS HONG KONG, published 2021).

The target in test [1] is T1, recombinant human CSF1R-Fc fusion protein (human, UniProt P07333 20-512).
T1 construct: probably the same protein; also called CSF1R-Fc (dimer); not shown: Fc part
Description: ELISA, coated human CSF1R-Fc (dimer). Here is the method:
(§1) Materials and methods: Recombinant human CSF1R-His (Biolegend), or CSF1R-Fc fusion protein were immobilized on 96 well microtiter plate at a concentration of 1 μg/mL in Coating Solution (SeraCare) overnight at 4° C. The wells were washed with wash solution (0.05% Tween20 in imidazole-buffered saline) and blocked with 1% BSA. Hybridoma culture supernatants or serial dilutions of antibodies were added to wells. After incubation at 37° C. for 1 h, the wells were washed with wash solution. Peroxidase-conjugated goat anti-human kappa light chain antibody (Bethyl) was applied to each well at 37° C. for 1 h incubation. After washing, the wells were developed with TMB substrate for 5-10 min at RT and then stopped with 1 N HCl. Thereafter absorbance was measured at 450 nm and 650 nm. The EC₅₀ values were calculated through GraphPad Prism7.
In general terms: An ELISA detects its analyte on a solid surface through an enzyme-linked reagent.

The target in test [2] is T2, recombinant human CSF1R-His (Biolegend) (human, UniProt P07333 20-512, limits assumed).
T2 construct: Bought protein; also called CSF1R-His (monomer); hu-CSF1R; not shown: His tag
T2 sequence (P07333 20-512 limits assumed): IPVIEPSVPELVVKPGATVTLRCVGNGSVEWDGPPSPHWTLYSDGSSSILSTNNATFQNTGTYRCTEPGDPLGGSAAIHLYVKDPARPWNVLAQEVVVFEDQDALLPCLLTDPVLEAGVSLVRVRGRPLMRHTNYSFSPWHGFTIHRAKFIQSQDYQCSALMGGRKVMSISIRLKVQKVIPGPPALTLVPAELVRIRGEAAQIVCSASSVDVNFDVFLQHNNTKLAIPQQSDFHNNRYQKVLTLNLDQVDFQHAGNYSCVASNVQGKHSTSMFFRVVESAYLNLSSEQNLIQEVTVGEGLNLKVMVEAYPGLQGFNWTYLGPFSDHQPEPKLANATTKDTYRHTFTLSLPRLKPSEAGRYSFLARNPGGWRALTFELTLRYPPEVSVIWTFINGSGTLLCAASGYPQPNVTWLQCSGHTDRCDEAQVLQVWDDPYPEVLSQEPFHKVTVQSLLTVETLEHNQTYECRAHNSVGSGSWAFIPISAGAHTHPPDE
In words: ELISA, coated human CSF1R-His (monomer). Here is the method:
as §1

For test [3], the target named is T1, recombinant human CSF1R-Fc fusion …. Description: competition ELISA, coated human CSF1R-Fc, competitor biotinylated CSF1-His 2.5 ug/mL. Here is the method: (§2) Materials and methods: Recombinant human CSF1R-Fc fusion protein was immobilized on 96 well microtiter plate at a concentration of 1 μg/mL in Coating Solution (SeraCare) overnight at 4° C. The wells were washed with wash solution and blocked with 1% BSA at RT. Serial dilutions of the antibodies were added to wells. Then 2.5 ug/mL biotinylated CSF1-His (Biolegend) was added and incubated for 1 h at 37° C. After washing, Streptavidin-HRP (Jackson ImmunoResearch) was applied to wells at RT for 1 h incubation. After washing, the wells were developed with TMB substrate for 5-10 min at RT and the stopped with 1 N HCl. Thereafter absorbance was measured at 450 nm and 650 nm. The IC₅₀ values were calculated through GraphPad Prism7.

For test [4], the target named is human CSF1R expressed on cells (293F/huCSF1R stable cells; AML5 cells; human monocytes and macrophages) (human, UniProt P07333 20-972). In words: cell-based or functional assay.
Test [5] addresses T1, recombinant human CSF1R-Fc fusion …. In words: ELISA, coated human CSF1R-Fc. The protocol:
Materials and methods: Recombinant human CSF1R-Fc, or mouse CSF1R-Fc (Sino Biological) were immobilized on 96 well microtiter plate at a concentration of 1 μg/mL in Coating Solution (SeraCare) overnight at 4° C. The wells were washed with wash solution (0.05% Tween20 in imidazole-buffered saline) and blocked with 1% BSA. Serial dilutions of the anti-CSF1R/IL-10 fusion proteins were added to wells. After incubation at 3TC for 1 h, the wells were washed with wash solution. To detect chimeric Ab/IL10 fusions, peroxidase-conjugated goat anti-human kappa light chain antibody (Bethyl) was applied to each well at 3TC for 1 h incubation. To detect AB98 or AB98/1110 fusions, peroxidase-conjugated Goat anti-mouse IgG Fab antibody (Jackson immunoresearch) was applied to each well at 3TC for 1 h incubation. After washing, the wells were developed with TMB substrate for 5-10 min at RT and then stopped with 1 N HCl. Thereafter absorbance was measured at 450 nm and 650 nm.

Test [6] concerns the target T3, recombinant human IL-10Ra fusion protein (R&D Systems) (human, UniProt Q13651 22-235).
T3 sequence (looked up): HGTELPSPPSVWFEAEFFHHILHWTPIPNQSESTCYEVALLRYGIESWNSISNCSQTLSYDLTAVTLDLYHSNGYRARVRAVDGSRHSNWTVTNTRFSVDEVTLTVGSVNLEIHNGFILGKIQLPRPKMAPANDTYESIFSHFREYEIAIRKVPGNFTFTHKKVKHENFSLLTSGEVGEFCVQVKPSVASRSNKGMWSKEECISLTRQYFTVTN
In words: ELISA, coated human IL-10Ra fusion protein. The protocol:
Materials and methods: Recombinant human IL-10Ra fusion protein (R&D Systems) were immobilized on 96 well microtiter plate at a concentration of 1 μg/ml in Coating Solution (SeraCare) overnight at 4° C. The wells were washed with wash solution (0.05% Tween20 in imidazole-buffered saline) and blocked with 1% BSA. Serial dilutions of Ab/IL-10 fusion proteins were added to wells. After incubation at 37° C. for lhr, the wells were washed with wash solution. Peroxidase-conjugated goat anti-human kappa light chain antibody (Bethyl) was applied to each well at 37° C. for 1 hr incubation. After washing, the wells were developed with TMB substrate for 5-10 min at RT and then stopped with 1 N HCl. Thereafter absorbance was measured at 450 nm and 650 nm. The EC50 value was calculated through GraphPad Prism7.

Test [7] addresses T1, recombinant human CSF1R-Fc fusion …. Description: competition ELISA, coated human CSF1R-Fc, competitor biotinylated human CSF1-His 2.5 ug/mL. Here is the method: as §2, with “CSF1R-Fc or mouse CSF1R-Fc (Sino Biological)” for “CSF1R-Fc”, “Ab/IL-10 fusion proteins” for “the antibodies”, “biotinylated human” for “biotinylated”, “(Biolegend) or mouse CSF1-His (Sino Biological)” for “(Biolegend)”

Test [8] addresses T4, cynomolgus CSF1R expressed on 293F cells (cynomolgus monkey, UniProt P07333 20-972 (human entry)).
T4 construct: also called cynoCSF1R
T4 chain: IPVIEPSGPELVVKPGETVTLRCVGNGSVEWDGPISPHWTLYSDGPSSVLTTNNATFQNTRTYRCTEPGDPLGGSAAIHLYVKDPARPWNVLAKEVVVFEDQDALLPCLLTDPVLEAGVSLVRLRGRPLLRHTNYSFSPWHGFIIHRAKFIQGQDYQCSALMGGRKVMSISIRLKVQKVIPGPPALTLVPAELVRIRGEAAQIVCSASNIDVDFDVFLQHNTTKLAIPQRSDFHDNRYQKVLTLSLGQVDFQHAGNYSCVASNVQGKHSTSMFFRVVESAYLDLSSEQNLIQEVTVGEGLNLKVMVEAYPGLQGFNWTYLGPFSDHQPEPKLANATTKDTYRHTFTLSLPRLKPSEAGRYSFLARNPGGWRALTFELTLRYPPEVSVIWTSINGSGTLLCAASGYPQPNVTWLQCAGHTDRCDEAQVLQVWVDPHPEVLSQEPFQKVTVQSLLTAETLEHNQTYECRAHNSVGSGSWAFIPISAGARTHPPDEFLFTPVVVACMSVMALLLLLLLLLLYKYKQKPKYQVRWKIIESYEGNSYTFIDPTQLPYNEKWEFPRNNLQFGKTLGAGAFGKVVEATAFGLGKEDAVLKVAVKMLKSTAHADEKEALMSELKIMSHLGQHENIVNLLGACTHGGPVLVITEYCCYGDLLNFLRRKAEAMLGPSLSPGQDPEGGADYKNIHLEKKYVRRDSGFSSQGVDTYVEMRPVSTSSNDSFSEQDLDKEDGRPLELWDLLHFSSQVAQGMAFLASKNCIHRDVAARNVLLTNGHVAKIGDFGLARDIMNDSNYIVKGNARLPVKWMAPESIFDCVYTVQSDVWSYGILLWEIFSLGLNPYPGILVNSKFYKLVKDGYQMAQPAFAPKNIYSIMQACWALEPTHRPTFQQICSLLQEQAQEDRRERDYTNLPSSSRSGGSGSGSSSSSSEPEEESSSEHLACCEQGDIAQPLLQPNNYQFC
In words: flow cytometry titration on 293F cells overexpressing cynomolgus CSF1R, anti-human IgG-Alexa Fluor 647. An excerpt: Materials and methods: The gene segments encoding full-length human CSF1R or cynomolgus CSF1R were obtained using Thermo gene synthesis service and cloned in a mammalian expression vector pCDNA3.4. […] After washing with FACS buffer (2%FBS in PBS), the cells were stained with anti-human IgG-Alexa Fluor 647 and analyzed by Attune N×T Flow Cytometer (Thermo Scientific).
On the technique in general: In flow cytometry, cells or beads pass a laser one at a time.

T1 sequence (P07333 20-512 limits assumed): as the sequence (P07333 20-512 limits assumed) above

B1: hy6M6 (antibody, V domains shown)
VH: DVQLQQSGTVLARPGASVKMSCKASGYTFTSYWIHWVKQRPGQGLEWIGAIYPGNRDTNYNQKFKGKAKLTTVTSASTAYMELSSLTNEDSAVYYCTGAFAGYYDWYFDVWGAGTTVTVSS
VL: DIVLTQSPASLAVSLGQRATISCKASQGVDYAGDSYMNWYQQKPGQPPKLLIYVASDLDSGIPARFSGSGSGTNFTLNIHPVEEEDAATYYCQQSYEDPRTFGGGTTLEIQ
notes: Mouse hybridoma antibody; also called anti-CSF1R antibody purified from hybridoma supernatant hy6M6
For orientation: EC50 means the concentration giving half of the maximal effect. As usually defined, the IC50 is the midpoint of a concentration-inhibition curve. Turning to B1, the results for the EC50 in test [1] and in test [2] were 0.0653 nM and 0.112 nM, respectively. Further, in test [3], the IC50 is 1.04 nM.

B2: chimeric anti-CSF1R/IL10 fusion protein 6D4/IL10 (antibody, human IgG1, kappa)
heavy: not shown
light: DIQMNQSPSSLSASLGDTITITCHASQNINVWLSWYQQKPGNIPKLLIYKASNLHTGVPSRFSGSGSGTGFTLTISSLQPEDIATYYCQQGQSYPYTFGGGTKLEIKRTVAAPSVFIFPPSDEQLKSGTASVVCLLNNFYPREAKVQWKVDNALQSGNSQESVTEQDSKDSTYSLSSTLTLSKADYEKHKVYACEVTHQGLSSPVTKSFNRGEC
notes: Antibody-cytokine fusion: human IL10 fused by a linker to the C-terminus of the heavy chain
Take B2: the “IC50 (M), inhibition of AML5 cell proliferation (CSF1-dependent)” value in test [4] amounted to 4.92e-09 M. In addition, the results for the EC50 in test [5] and in test [6] were 0.479 nM and 2.76 nM, respectively. The IC50 in test [7] is 1.4 nM. In test [8], the binding result is reported as “binds”.

B3: chimeric anti-CSF1R/IL10 fusion protein 6D4/(IL10)2 (antibody, human IgG1, kappa)
heavy: not shown
light: B2 light
notes: Antibody-cytokine fusion: two human IL10 in tandem fused by linkers to the C-terminus of the heavy chain
For B3, the figures for the EC50 in test [5] and in test [6] were 0.393 nM and 6.08 nM, respectively.
